Assay results as given in patent US8529906B2, “Compositions for inducing immune responses” (Novartis Vaccines and Diagnostics, Inc., priority 2003, dated 2013).
Entries after “also recorded” stand apart in the source; their conditions may differ.

Test system: EG7 (EL4 transfected with ovalbumin) and EL4 target cells
Assay: CTL activity (51Cr release cytotoxic cell assay) of spleen cells from mice immunized with OVA formulations
Assay type: in vivo
Conditions: subcutaneous, dose 10 μg, boosted at 14 and 28 days; for CTL activity relative to the other OVA formulations: comparison in words; for CTL response: percent specific 51Cr release
Procedure: Ovalbumin, PLG/OVA-entrapped particles, small OVA-protein particles (250 nm) and large OVA-protein particles (2500 nm), produced as described above, were administered subcutaneously to mice (dose=10 μg). The animals were boosted at 14 and 28 days. […] two weeks following the last immunization and CTL activity assayed as described in Doe et al., Proc. Natl. Acad. Sci. (1996) 93:8578-8583.
Lymphocyte cultures were prepared as follows. Spleen cells (sc) from immunized mice were cultured in 24-well dishes at 5×10^6 cells per well. Of those cells, 1×10^6 were sensitized with synthetic epitopic peptides from EG7 (EL4 transfected with ovalbumin) and EL4 proteins at a concentration of 10 μM for 1 hour at 37° C., washed, and cocultured with the remaining 4×10^6 untreated sc in 2 ml of culture medium [50% RPMI 1640 and 50% alpha-MEM (GIBCO)] supplemented with heat-inactivated fetal serum, 5×10^−5 M 2-mercaptoethanol, antibiotics, and 5% interleukin-2 (Rat T-Stim, Collaborative Biomedical Products, Bedford, Mass.). Cells were fed with 1 ml of fresh culture medium on days 3 and 5, and cytotoxicity was assayed on day 6.
The cytotoxic cell assay was conducted as follows. EG7 (EL4 transfected with ovalbumin) and EL4 target cells used in the ^51Cr release assays express class I but not class II MHC molecules. Approximately 1×10^6 target cells were incubated in 200 μl of medium containing 50 μCi (1 Ci=37 Gbq) of ^51Cr and synthetic Ovalbumin peptides (1 μm) for 60 min and washed three times. Effector (E) cells were cultured with 5×10^3 target (T) cells at various EST ratios in 200 μl of culture medium in 96-well round-bottom tissue culture plates for 4 hours. The average cpm from duplicate wells was used to calculate percent specific ^51Cr release.

B1: small OVA-protein particles: Heat-stabilized ovalbumin protein particles formed by acetone coacervation, about 250 nm in diameter (protein, UniProt P01012 2-386, looked up)
Ovalbumin: GSIGAASMEFCFDVFKELKVHHANENIFYCPIAIMSALAMVYLGAKDSTRTQINKVVRFDKLPGFGDSIEAQCGTSVNVHSSLRDILNQITKPNDVYSFSLASRLYAEERYPILPEYLQCVKELYRGGLEPINFQTAADQARELINSWVESQTNGIIRNVLQPSSVDSQTAMVLVNAIVFKGLWEKAFKDEDTQAMPFRVTEQESKPVQMMYQIGLFRVASMASEKMKILELPFASGTMSMLVLLPDEVSGLEQLESIINFEKLTEWTSSNVMEERKIKVYLPRMKMEEKYNLTSVLMAMGITDVFSSSANLSGISSAESLKISQAVHAAHAEINEAGREVVGSAEAGVDAASVSEEFRADHPFLFCIKHIATNAVLFFGRCVSP
modifications: heat-stabilized particles
notes: Heat-stabilized ovalbumin protein particles formed by acetone coacervation, about 250 nm in diameter
CTL activity relative to the other OVA formulations: activity comparable to the large OVA-protein particles; also recorded: more active, e.g., elicited a greater immune response than the PLG/OVA-entrapped particles and ovalbumin alone formulations
CTL response: elicited a CTL response

B2: large OVA-protein particles: Heat-stabilized ovalbumin protein particles formed by acetone coacervation, about 2.5 μm in diameter (protein, UniProt P01012 2-386, looked up)
Ovalbumin: B1 Ovalbumin
modifications: heat-stabilized particles
notes: Heat-stabilized ovalbumin protein particles formed by acetone coacervation, about 2.5 μm in diameter
CTL activity relative to the other OVA formulations: more active, e.g., elicited a greater immune response than the PLG/OVA-entrapped particles and ovalbumin alone formulations
CTL response: elicited a CTL response
